T1: PDZRN3_1, Q9UPQ7
T1 sequence (Q9UPQ7 244-349, limits assumed, looked up): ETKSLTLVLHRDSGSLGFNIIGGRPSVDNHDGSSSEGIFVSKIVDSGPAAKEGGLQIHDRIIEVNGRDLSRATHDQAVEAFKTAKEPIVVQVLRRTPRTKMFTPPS

T2: SNTG1, Q9NSN8
T2 sequence (Q9NSN8 52-150, limits assumed, looked up): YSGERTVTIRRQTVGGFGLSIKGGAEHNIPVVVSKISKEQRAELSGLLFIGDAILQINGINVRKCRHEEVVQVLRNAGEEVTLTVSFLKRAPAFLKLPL

T3: SYNJ2BP, P57105
T3 sequence (P57105 8-110, limits assumed, looked up): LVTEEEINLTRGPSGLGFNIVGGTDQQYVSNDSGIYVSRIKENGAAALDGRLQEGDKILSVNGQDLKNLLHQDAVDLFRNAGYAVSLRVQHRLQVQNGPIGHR

T4: MPP6, Q9NZW5
T4 sequence (Q9NZW5 125-219, limits assumed, looked up): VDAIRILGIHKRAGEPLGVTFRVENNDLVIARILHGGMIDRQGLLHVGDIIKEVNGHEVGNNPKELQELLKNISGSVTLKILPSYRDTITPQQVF

T5: DFNB31_2, Q9P202
T5 sequence (Q9P202 274-371, limits assumed, looked up): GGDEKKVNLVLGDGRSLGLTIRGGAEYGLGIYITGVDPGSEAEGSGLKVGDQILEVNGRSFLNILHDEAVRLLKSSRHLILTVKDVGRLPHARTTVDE

T6: GRIP1_3, Q9Y3R0
T6 sequence (Q9Y3R0 247-346, limits assumed, looked up): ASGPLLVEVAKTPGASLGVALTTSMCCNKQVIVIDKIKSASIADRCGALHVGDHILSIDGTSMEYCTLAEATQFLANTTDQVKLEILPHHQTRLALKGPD

T7: ARHGAP21, Q5T5U3
T7 sequence (Q5T5U3 45-169, limits assumed, looked up): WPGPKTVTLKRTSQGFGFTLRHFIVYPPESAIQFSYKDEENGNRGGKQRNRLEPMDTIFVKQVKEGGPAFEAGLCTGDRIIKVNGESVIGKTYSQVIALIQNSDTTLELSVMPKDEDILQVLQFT

T8: NHERF3_1, Q5T2W1
T8 sequence (Q5T2W1 4-100, limits assumed, looked up): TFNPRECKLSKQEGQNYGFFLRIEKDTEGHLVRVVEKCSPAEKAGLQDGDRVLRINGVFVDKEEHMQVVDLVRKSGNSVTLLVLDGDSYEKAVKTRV

T9: DLG3_2, Q92796
T9 sequence (Q92796 221-321, limits assumed, looked up): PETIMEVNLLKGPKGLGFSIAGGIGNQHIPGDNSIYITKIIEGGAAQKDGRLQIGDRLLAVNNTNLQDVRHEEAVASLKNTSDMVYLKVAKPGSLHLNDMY

T10: MPP7, Q5T2T1
T10 sequence (Q5T2T1 134-230, limits assumed, looked up): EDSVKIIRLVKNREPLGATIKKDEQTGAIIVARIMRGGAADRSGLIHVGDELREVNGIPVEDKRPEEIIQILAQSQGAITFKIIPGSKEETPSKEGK

T11: LIN7B, Q9HAP6
T11 sequence (Q9HAP6 88-185, limits assumed, looked up): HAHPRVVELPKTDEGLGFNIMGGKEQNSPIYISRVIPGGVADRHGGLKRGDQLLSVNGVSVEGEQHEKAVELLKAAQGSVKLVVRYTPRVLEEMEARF

T12: HTRA4, P83105
T12 sequence (P83105 378-476, limits assumed, looked up): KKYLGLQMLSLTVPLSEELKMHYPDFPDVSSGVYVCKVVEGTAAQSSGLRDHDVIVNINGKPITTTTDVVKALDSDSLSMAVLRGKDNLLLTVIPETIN

B1: RSBN1, Q5VWQ0 (peptide)
chain: NLQEHSTTSV
B2: PLCB1, Q9NQ66 (peptide)
chain: IPGKEFDTPL
B3: IGF1R, P08069 (peptide)
chain: ALPLPQSSTC

What follows are binders tested against MAGI1_2, Q96QZ7 (assay: holdup assay). Conditions: plain residues with an end cap or a label only (N-terminal biotin on a linker: ado-ado).
Chain of MAGI1_2, Q96QZ7 (Q96QZ7 456-580): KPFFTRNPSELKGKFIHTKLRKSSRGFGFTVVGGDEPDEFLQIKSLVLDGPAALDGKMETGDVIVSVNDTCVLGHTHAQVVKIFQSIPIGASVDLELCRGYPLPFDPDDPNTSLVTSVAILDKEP
Parameters: key: below the threshold = too weak to quantify, mostly under pKd 3.1 to 4

| pKd | Binder |
| --- | --- |
| 3.53 | B1 |
| below the threshold | B2 |
| below the threshold | B3 |

These binders were tested against T1, PDZRN3_1, Q9UPQ7 (assay: holdup assay). Conditions: plain residues with an end cap or a label only (N-terminal biotin on a linker: ado-ado).
Parameters: key: below the threshold = too weak to quantify, mostly under pKd 3.1 to 4

| pKd | Binder |
| --- | --- |
| below the threshold | B1 |
| 4.33 | B2 |
| below the threshold | B3 |

What follows are binders tested against T2, SNTG1, Q9NSN8 (assay: holdup assay). Conditions: plain residues with an end cap or a label only (N-terminal biotin on a linker: ado-ado).
Parameters: key: below the threshold = too weak to quantify, mostly under pKd 3.1 to 4

| pKd | Binder |
| --- | --- |
| 3.65 | B1 |
| below the threshold | B2 |
| below the threshold | B3 |

What follows are binders tested against T3, SYNJ2BP, P57105 (assay: holdup assay). Conditions: plain residues with an end cap or a label only (N-terminal biotin on a linker: ado-ado).
Parameters: key: below the threshold = too weak to quantify, mostly under pKd 3.1 to 4

| pKd | Binder |
| --- | --- |
| 4.42 | B1 |
| 4.33 | B2 |
| 3.67 | B3 |

Each binder was assayed against GIPC2, Q8TF65 (assay: holdup assay). Conditions: plain residues with an end cap or a label only (N-terminal biotin on a linker: ado-ado).
Chain of GIPC2, Q8TF65 (Q8TF65 112-203): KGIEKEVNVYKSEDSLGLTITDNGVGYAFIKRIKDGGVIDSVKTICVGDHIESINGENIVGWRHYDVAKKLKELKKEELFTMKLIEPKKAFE
Parameters: key: below the threshold = too weak to quantify, mostly under pKd 3.1 to 4

| pKd | Binder |
| --- | --- |
| below the threshold | B1 |
| below the threshold | B2 |
| below the threshold | B3 |

What follows are binders tested against Inadl_2, Q8NI35 (assay: holdup assay). Conditions: plain residues with an end cap or a label only (N-terminal biotin on a linker: ado-ado).
Chain of Inadl_2, Q8NI35 (Q8NI35 238-335): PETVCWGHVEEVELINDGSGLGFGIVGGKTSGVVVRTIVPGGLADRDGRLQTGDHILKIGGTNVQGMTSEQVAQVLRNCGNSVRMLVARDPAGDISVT
Parameters: key: below the threshold = too weak to quantify, mostly under pKd 3.1 to 4

| pKd | Binder |
| --- | --- |
| below the threshold | B1 |
| below the threshold | B2 |
| below the threshold | B3 |

These binders were tested against T4, MPP6, Q9NZW5 (assay: holdup assay). Conditions: plain residues with an end cap or a label only (N-terminal biotin on a linker: ado-ado).
Parameters: key: below the threshold = too weak to quantify, mostly under pKd 3.1 to 4

| pKd | Binder |
| --- | --- |
| 3.69 | B1 |
| 3.59 | B2 |
| below the threshold | B3 |

What follows are binders tested against LDB3, O75112 (assay: holdup assay). Conditions: plain residues with an end cap or a label only (N-terminal biotin on a linker: ado-ado).
Chain of LDB3, O75112 (O75112 1-94): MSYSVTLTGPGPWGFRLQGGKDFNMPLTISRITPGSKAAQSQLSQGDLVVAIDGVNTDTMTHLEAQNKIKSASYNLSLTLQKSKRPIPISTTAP
Parameters: key: below the threshold = too weak to quantify, mostly under pKd 3.1 to 4

| pKd | Binder |
| --- | --- |
| below the threshold | B1 |
| below the threshold | B2 |
| below the threshold | B3 |

Each binder was assayed against T5, DFNB31_2, Q9P202 (assay: holdup assay). Conditions: plain residues with an end cap or a label only (N-terminal biotin on a linker: ado-ado).
Parameters: key: below the threshold = too weak to quantify, mostly under pKd 3.1 to 4

| pKd | Binder |
| --- | --- |
| below the threshold | B1 |
| below the threshold | B2 |
| below the threshold | B3 |

Each binder was assayed against PICK1, Q9NRD5 (assay: holdup assay). Conditions: plain residues with an end cap or a label only (N-terminal biotin on a linker: ado-ado).
Chain of PICK1, Q9NRD5 (Q9NRD5 17-115): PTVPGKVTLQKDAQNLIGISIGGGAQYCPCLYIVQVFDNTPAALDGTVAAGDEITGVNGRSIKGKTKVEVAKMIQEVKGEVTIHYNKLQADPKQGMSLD
Parameters: key: below the threshold = too weak to quantify, mostly under pKd 3.1 to 4

| pKd | Binder |
| --- | --- |
| below the threshold | B1 |
| below the threshold | B2 |
| below the threshold | B3 |

These binders were tested against GRIP2_5, Q9C0E4 (assay: holdup assay). Conditions: plain residues with an end cap or a label only (N-terminal biotin on a linker: ado-ado).
Chain of GRIP2_5, Q9C0E4 (Q9C0E4 544-642): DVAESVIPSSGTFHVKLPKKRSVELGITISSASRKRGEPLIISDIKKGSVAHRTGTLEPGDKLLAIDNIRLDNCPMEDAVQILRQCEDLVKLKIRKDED
Parameters: key: below the threshold = too weak to quantify, mostly under pKd 3.1 to 4

| pKd | Binder |
| --- | --- |
| below the threshold | B1 |
| below the threshold | B2 |
| below the threshold | B3 |

Each binder was assayed against MAGI2_5, Q86UL8 (assay: holdup assay). Conditions: plain residues with an end cap or a label only (N-terminal biotin on a linker: ado-ado).
Chain of MAGI2_5, Q86UL8 (Q86UL8 915-1017): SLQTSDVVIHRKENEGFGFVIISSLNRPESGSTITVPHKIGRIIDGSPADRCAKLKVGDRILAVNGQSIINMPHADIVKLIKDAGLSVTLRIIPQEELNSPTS
Parameters: key: below the threshold = too weak to quantify, mostly under pKd 3.1 to 4

| pKd | Binder |
| --- | --- |
| 3.48 | B1 |
| below the threshold | B2 |
| below the threshold | B3 |

The binders below were run against T6, GRIP1_3, Q9Y3R0 (assay: holdup assay). Conditions: plain residues with an end cap or a label only (N-terminal biotin on a linker: ado-ado).
Parameters: key: below the threshold = too weak to quantify, mostly under pKd 3.1 to 4

| pKd | Binder |
| --- | --- |
| below the threshold | B1 |
| below the threshold | B2 |
| below the threshold | B3 |

What follows are binders tested against GRIP2_7, Q9C0E4 (assay: holdup assay). Conditions: plain residues with an end cap or a label only (N-terminal biotin on a linker: ado-ado).
Chain of GRIP2_7, Q9C0E4 (Q9C0E4 934-1023): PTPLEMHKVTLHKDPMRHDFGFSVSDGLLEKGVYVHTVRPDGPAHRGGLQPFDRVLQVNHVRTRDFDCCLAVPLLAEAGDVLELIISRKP
Parameters: key: below the threshold = too weak to quantify, mostly under pKd 3.1 to 4

| pKd | Binder |
| --- | --- |
| below the threshold | B1 |
| below the threshold | B2 |
| below the threshold | B3 |

These binders were tested against T7, ARHGAP21, Q5T5U3 (assay: holdup assay). Conditions: plain residues with an end cap or a label only (N-terminal biotin on a linker: ado-ado).
Parameters: key: below the threshold = too weak to quantify, mostly under pKd 3.1 to 4

| pKd | Binder |
| --- | --- |
| below the threshold | B1 |
| 3.58 | B2 |
| 3.76 | B3 |

The binders below were run against T8, NHERF3_1, Q5T2W1 (assay: holdup assay). Conditions: plain residues with an end cap or a label only (N-terminal biotin on a linker: ado-ado).
Parameters: key: below the threshold = too weak to quantify, mostly under pKd 3.1 to 4

| pKd | Binder |
| --- | --- |
| below the threshold | B1 |
| 5.12 | B2 |
| below the threshold | B3 |

Each binder was assayed against Inadl_10, Q8NI35 (assay: holdup assay). Conditions: plain residues with an end cap or a label only (N-terminal biotin on a linker: ado-ado).
Chain of Inadl_10, Q8NI35 (Q8NI35 1673-1763): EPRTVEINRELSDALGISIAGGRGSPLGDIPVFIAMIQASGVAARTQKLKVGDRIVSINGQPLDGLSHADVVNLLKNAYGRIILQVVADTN
Parameters: key: below the threshold = too weak to quantify, mostly under pKd 3.1 to 4

| pKd | Binder |
| --- | --- |
| below the threshold | B1 |
| below the threshold | B2 |
| below the threshold | B3 |

What follows are binders tested against T9, DLG3_2, Q92796 (assay: holdup assay). Conditions: plain residues with an end cap or a label only (N-terminal biotin on a linker: ado-ado).
Parameters: key: below the threshold = too weak to quantify, mostly under pKd 3.1 to 4

| pKd | Binder |
| --- | --- |
| 3.47 | B1 |
| below the threshold | B2 |
| 4.22 | B3 |

What follows are binders tested against T10, MPP7, Q5T2T1 (assay: holdup assay). Conditions: plain residues with an end cap or a label only (N-terminal biotin on a linker: ado-ado).
Parameters: key: below the threshold = too weak to quantify, mostly under pKd 3.1 to 4

| pKd | Binder |
| --- | --- |
| below the threshold | B1 |
| below the threshold | B2 |
| below the threshold | B3 |

The binders below were run against MAGI3_2, Q5TCQ9 (assay: holdup assay). Conditions: plain residues with an end cap or a label only (N-terminal biotin on a linker: ado-ado).
Chain of MAGI3_2, Q5TCQ9 (Q5TCQ9 398-503): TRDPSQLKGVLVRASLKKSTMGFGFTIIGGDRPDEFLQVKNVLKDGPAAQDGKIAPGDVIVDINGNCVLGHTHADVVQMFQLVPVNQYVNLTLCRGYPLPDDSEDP
Parameters: key: below the threshold = too weak to quantify, mostly under pKd 3.1 to 4

| pKd | Binder |
| --- | --- |
| 4.38 | B1 |
| below the threshold | B2 |
| below the threshold | B3 |

What follows are binders tested against Inadl_6, Q8NI35 (assay: holdup assay). Conditions: plain residues with an end cap or a label only (N-terminal biotin on a linker: ado-ado).
Chain of Inadl_6, Q8NI35 (Q8NI35 1058-1167): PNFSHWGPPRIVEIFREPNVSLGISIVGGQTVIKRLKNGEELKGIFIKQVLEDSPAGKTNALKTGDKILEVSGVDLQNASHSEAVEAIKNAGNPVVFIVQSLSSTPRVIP
Parameters: key: below the threshold = too weak to quantify, mostly under pKd 3.1 to 4

| pKd | Binder |
| --- | --- |
| below the threshold | B1 |
| below the threshold | B2 |
| below the threshold | B3 |

Each binder was assayed against T11, LIN7B, Q9HAP6 (assay: holdup assay). Conditions: plain residues with an end cap or a label only (N-terminal biotin on a linker: ado-ado).
Parameters: key: below the threshold = too weak to quantify, mostly under pKd 3.1 to 4

| pKd | Binder |
| --- | --- |
| below the threshold | B1 |
| below the threshold | B2 |
| 3.86 | B3 |

Each binder was assayed against FRMPD2_3, Q68DX3 (assay: holdup assay). Conditions: plain residues with an end cap or a label only (N-terminal biotin on a linker: ado-ado).
Chain of FRMPD2_3, Q68DX3 (Q68DX3 1073-1166): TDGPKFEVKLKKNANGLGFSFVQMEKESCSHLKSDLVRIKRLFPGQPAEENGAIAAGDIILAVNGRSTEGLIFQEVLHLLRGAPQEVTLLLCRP
Parameters: key: below the threshold = too weak to quantify, mostly under pKd 3.1 to 4

| pKd | Binder |
| --- | --- |
| below the threshold | B1 |
| below the threshold | B2 |
| 3.54 | B3 |

The binders below were run against T12, HTRA4, P83105 (assay: holdup assay). Conditions: plain residues with an end cap or a label only (N-terminal biotin on a linker: ado-ado).
Parameters: key: below the threshold = too weak to quantify, mostly under pKd 3.1 to 4

| pKd | Binder |
| --- | --- |
| below the threshold | B1 |
| below the threshold | B2 |
| below the threshold | B3 |
